The record followed here is patent US20250066421A1.

*1 amine or outer side, *2 acyl side, *3 side chain or, on linkers, in order; H or OH if unused. Bridges are numbered along the chain shown (N, C = ends). Where no end group is shown, it is not given here. [ ]: non-standard residue; d: D form. TATA = O=C(CC[*:1])N1CN(C(=O)CC[*:2])CN(C(=O)CC[*:3])C1; 1Nal = N[C@@H](Cc1cccc2ccccc12)C(=O)O; PABC = O=C(OCc1ccc(N[*:1])cc1)[*:2]; Glutaryl = O=C(CCCC(=O)[*:2])[*:1]; Cya = N[C@@H](CS(=O)(=O)O)C(=O)O; Hyp = O=C(O)[C@@H]1C[C@@H](O)CN1; dCya = N[C@H](CS(=O)(=O)O)C(=O)O; hArg = N=C(N)NCCCC[C@H](N)C(=O)O; Cit = NC(=O)NCCC[C@H](N)C(=O)O; βAla = NCCC(=O)O; Sar = CNCC(=O)O

Experiment [1] concerns the target Human Nectin-4 (residues Gly32-Ser349; NCBI RefSeq: NP_112178.2) with C-terminal FLAG tag, biotinylated (human) (UniProt Q96NY8). As to the kind of experiment: SPR (Biacore 3000), biotinylated human Nectin-4 on streptavidin CM5 chip, drug conjugate as analyte.
Experiment [2] has the same target. As to the kind of experiment: SPR (Biacore 3000), biotinylated human Nectin-4 on streptavidin CM5 chip, peptide as analyte.
For experiment [3], the target named is T1, human Nectin-4 (human), Q96NY8.
T1 chain: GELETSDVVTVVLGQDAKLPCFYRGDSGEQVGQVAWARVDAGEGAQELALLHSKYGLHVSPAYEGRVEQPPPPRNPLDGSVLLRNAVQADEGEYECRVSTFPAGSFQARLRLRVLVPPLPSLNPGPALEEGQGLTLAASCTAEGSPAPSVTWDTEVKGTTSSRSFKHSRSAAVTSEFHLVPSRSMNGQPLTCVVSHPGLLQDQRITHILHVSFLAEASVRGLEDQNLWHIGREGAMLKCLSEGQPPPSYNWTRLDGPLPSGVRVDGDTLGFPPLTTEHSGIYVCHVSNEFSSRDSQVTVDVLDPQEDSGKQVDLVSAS
As to the kind of experiment: FP competition with tracer m4. Conditions: remark: other sources report otherwise.

Consider {MMAE-PABC-Cit-Val-Glutaryl-βAla}-[Sar][Sar][Sar][Sar][Sar][Sar][Sar][Sar][Sar][Sar]CP[1Nal][dCya]CM[hArg][Cya]WSTP[Hyp]WC (linker 11-15-25 via TATA) [BCY8784: MMAE-PABC-Cit-Val-Glutaryl-BCY8273], for which, in experiment [1], the Kd came to 0.662 nM.
As for {Ac-βAla}-[Sar][Sar][Sar][Sar][Sar][Sar][Sar][Sar][Sar][Sar]CP[1Nal][dCya]CM[hArg][Cya]WSTP[Hyp]WC (linker 11-15-25 via TATA) [BCY8280: Ac-[B-Ala][Sar10]-(SEQ ID NO: 209)], the Kd in experiment [2] stood at 2 nM.
Regarding ACPFGCMKNWAWPIWCTNK (linker 2-6-16 via TATA) [BCY7424], the inhibitory constant (Ki) in experiment [3] is 562 nM.
With {Ac-βAla}-[Sar][Sar][Sar][Sar][Sar][Sar][Sar][Sar][Sar][Sar]CP[1Nal][dD]CM[hArg][Cya]WSTP[Hyp]WC (linker 11-15-25 via TATA) [BCY8278: Ac-[B-Ala][Sar10]-(SEQ ID NO: 177)], the Kd in experiment [2] was determined as 1.92 nM.
Ac-CP[1Nal][dD]CM[hArg][Cya]WSTP[Hyp]WC (linker 1-5-15 via TATA) [BCY8161: Ac-(SEQ ID NO: 177)] returned a Kd in experiment [2] of 0.94 nM.
{Ac-βAla}-[Sar][Sar][Sar][Sar][Sar][Sar][Sar][Sar][Sar][Sar]CP[1Nal][dD]CM[Cya][Cya]WSTP[Hyp]WC (linker 11-15-25 via TATA) [BCY8281: Ac-[B-Ala][Sar10]-(SEQ ID NO: 210)] showed a Kd in experiment [2] of 6.11 nM.
